Experimental data reported in paper PMC12534491.

Molecular target: T1, Tat peptide (arginine-rich motif) (HIV-1, UniProt P04608)
T1 chain: RKKRRQRRRPPQG
Test: in-cell NMR

B1: anti-Tat RNA aptamer (structured_RNA)
RNA: GGGAGCUUGAUCCCGGAAACGGUCGAUCGCUCCC
- binding result: binds
